# Test results published in US9956304 (GEORGIA STATE UNIVERSITY RESEARCH FOUNDATION, dated 2018).
# Key:
# [1] = target: T1, gastrin-releasing peptide receptor (GRPR) (UniProt P30550 1-384, limits assumed); assay: Scatchard plot experiments, GRPR on cancer cell lines
# T1 construct: whole, on cells; Endogenous receptor on PC3 and H441 cells, xenograft tumors or PC3 cell lysate; the cell lines are human; also called GRP receptor
# [2] = target: T1, gastrin-releasing peptide receptor …; assay: Scatchard plot from absorbance-based assay on wells of PC3 cell lysate; Kd of this variant not given
# T1 sequence (P30550 whole entry): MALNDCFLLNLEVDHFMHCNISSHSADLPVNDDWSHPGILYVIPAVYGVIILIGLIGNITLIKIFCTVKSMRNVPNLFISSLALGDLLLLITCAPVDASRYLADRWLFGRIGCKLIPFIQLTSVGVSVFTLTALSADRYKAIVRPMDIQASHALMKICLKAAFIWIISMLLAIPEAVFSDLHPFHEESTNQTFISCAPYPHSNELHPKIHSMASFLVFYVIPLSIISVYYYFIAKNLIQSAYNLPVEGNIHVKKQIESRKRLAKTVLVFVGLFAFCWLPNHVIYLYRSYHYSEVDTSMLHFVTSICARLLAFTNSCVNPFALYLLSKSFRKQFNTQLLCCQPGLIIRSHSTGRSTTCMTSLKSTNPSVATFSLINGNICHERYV
binding result [1],binding result [2],Binder
binds,–,ProCA1.B10 (designed binder) RDSGTVWGALGHGIELNIPNFQMTDDIDEVRWERGSTLVAEFKRKMKPFLKSGGSGGGNQWAVGHLMGGSGGAFEIDANGDLDIKNLTRDDSGTYNVTVYSTNGTRILNKALDLRILE
–,binds,ProCA1.G10 (designed binder) RDSGTVWGALGHGIELNIPNFQMTDDIDEVRWERGSTLVAEFKRKMKPFLKSGGSGGGNHWAVGHLMGGSGGAFEIDANGDLDIKNLTRDDSGTYNVTVYSTNGTRILNKALDLRILE
